In US20050065082:

How the values were obtained:
[1] = biological target: GST-BMAL1 (N-terminal GST fusion protein of human BMAL1; BMAL1b was used)
[2] = biological target: T1, GST-BPL1 (N-terminal GST fusion protein of human BPL1, holocarboxylase synthetase)
T1 chain: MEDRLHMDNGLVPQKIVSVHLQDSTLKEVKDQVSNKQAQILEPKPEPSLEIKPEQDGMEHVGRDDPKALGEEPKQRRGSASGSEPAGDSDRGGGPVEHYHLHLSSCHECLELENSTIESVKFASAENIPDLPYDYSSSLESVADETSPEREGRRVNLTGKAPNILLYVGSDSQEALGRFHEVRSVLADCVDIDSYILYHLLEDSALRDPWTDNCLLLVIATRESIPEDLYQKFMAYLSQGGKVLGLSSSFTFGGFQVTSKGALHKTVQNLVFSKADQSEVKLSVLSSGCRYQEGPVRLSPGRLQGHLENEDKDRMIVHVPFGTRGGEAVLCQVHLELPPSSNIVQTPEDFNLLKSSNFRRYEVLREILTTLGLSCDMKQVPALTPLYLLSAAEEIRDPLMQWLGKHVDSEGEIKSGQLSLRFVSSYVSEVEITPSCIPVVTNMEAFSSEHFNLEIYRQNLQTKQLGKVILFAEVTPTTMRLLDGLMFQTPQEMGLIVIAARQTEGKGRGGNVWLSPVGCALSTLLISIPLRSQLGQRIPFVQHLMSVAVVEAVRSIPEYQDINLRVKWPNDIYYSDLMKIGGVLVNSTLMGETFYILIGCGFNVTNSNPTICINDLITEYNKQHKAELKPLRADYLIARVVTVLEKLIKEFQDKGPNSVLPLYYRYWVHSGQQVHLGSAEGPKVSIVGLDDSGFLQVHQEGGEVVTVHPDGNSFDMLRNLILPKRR

[3] = biological target: GST-KIAA0596CT (N-terminal GST fusion protein of human KIAA0596CT, the C-terminal region, amino acids 639 to 1217, of KIAA0596) [GST: P08515]
[4] = biological target: T2, GST-KIAA1491 complete (N-terminal GST-fusion protein of KIAA1491 complete)
T2 chain: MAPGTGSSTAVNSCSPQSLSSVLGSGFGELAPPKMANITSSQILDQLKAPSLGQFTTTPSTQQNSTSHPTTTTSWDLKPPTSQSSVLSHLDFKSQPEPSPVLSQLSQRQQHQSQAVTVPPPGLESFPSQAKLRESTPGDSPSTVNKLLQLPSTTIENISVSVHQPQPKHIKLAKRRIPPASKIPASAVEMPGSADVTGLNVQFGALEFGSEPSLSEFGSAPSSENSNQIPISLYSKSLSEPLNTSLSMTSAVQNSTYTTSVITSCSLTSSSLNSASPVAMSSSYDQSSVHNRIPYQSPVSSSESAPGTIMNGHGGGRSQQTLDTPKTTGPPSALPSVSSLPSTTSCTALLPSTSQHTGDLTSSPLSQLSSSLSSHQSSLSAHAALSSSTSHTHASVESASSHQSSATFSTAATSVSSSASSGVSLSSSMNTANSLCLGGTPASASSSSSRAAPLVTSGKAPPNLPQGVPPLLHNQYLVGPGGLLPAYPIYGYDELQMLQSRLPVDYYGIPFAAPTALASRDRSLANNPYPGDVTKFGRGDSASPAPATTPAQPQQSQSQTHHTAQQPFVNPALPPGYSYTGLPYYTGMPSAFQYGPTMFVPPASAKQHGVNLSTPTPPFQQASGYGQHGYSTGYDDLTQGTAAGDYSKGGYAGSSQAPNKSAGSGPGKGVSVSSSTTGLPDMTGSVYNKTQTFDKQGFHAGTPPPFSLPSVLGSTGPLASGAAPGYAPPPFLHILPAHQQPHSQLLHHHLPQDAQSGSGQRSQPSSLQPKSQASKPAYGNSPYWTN

[5] = biological target: GST (glutathione S-transferase) [GST: P08515]

Sequence of GST-BMAL1 (N-terminal GST fusion protein of human BMAL1; BMAL1b was used) (chain, as listed by the source): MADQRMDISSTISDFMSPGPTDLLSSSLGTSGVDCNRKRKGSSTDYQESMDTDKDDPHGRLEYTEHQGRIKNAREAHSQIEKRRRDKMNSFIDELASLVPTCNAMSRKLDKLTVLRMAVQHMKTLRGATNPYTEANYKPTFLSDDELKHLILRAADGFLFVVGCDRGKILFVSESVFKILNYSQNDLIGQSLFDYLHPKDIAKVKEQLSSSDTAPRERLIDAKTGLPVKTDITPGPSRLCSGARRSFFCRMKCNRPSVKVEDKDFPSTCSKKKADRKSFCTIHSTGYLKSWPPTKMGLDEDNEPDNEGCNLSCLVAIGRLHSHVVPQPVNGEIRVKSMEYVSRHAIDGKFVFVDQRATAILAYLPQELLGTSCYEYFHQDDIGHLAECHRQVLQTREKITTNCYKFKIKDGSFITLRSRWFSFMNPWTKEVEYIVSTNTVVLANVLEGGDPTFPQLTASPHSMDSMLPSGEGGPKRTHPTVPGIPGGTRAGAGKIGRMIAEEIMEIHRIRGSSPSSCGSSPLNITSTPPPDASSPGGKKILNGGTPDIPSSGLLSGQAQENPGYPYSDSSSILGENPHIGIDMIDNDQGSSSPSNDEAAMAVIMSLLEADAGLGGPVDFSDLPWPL

B1: His-JNK3 (activated human JNK3 (JNK3α1) with an N-terminal histidine-tag) (protein)
chain: MSLHFLYYCSEPTLDVKIAFCQGFDKQVDVSYIAKHYNMSKSKVDNQFYSVEVGDSTFTVLKRYQNLKPIGSGAQGIVCAAYDAVLDRNVAIKKLSRPFQNQTHAKRAYRELVLMKCVNHKNIISLLNVFTPQKTLEEFQDVYLVMELMDANLCQVIQMELDHERMSYLLYQMLCGIKHLHSAGIIHRDLKPSNIVVKSDCTLKILDFGLARTAGTSFMMTPYVVTRYYRAPEVILGMGYKENVDIWSVGCIMGEMVRHKILFPGRDYIDQWNKVIEQLGTPCPEFMKKLQPTVRNYVENRPKYAGLTFPKLFPDSLFPADSEHNKLKASQARDLLSKMLVIDPAKRISVDDALQHPYINVWYDPAEVEAPPPQIYDKQLDEREHTIEEWKELIYKEVMNSEEKTKNGVVKGQPSPSAQVQQ
With B1 the Relative Strength (%) of the phosphorylated GST-c-Jun (1-79) band, 1.0 µg added protein (none added = 100) [1] was 15.3%, the Relative Strength (%) of the phosphorylated GST-c-Jun (1-79) band, 2.0 µg added protein (none added = 100) [1] was 4.7% and the “phosphorylation of GST-BMAL1 by JNK3 (in vitro kinase assay, [γ-32P] ATP, autoradiography)” value [1] was “the phosphorylation of GST-BMAL1 by JNK3 was observed ... the phosphorylation was dependent on the dose of JNK3”. For the same protein, the Relative Strength (%) of the phosphorylated GST-c-Jun (1-79) band, 1.0 µg added protein (none added = 100) [2] was 81.6%, the Relative Strength (%) of the phosphorylated GST-c-Jun (1-79) band, 2.0 µg added protein (none added = 100) [2] was 59.7% and the “phosphorylation of GST-BPL1 by JNK3 (in vitro kinase assay, [γ-32P] ATP, autoradiography)” value [2] was “The phosphorylation of GST-BPL1 by JNK3 was observed. Since the phosphorylation was dependent on the dose of JNK3”. It also gave a Relative Strength (%) of the phosphorylated GST-c-Jun (1-79) band, 1.0 µg added protein (none added = 100) [3] of 70.6%, a Relative Strength (%) of the phosphorylated GST-c-Jun (1-79) band, 2.0 µg added protein (none added = 100) [3] of 33.5% and a Relative Strength (%) of the phosphorylated GST-c-Jun (1-79) band, 1.0 µg added protein (none added = 100) [4] of 71.5%. For the same protein, the Relative Strength (%) of the phosphorylated GST-c-Jun (1-79) band, 2.0 µg added protein (none added = 100) [4] was 67.1%, the “phosphorylation of GST-KIAA1491 complete by JNK3 (in vitro kinase assay, [γ-32P] ATP, autoradiography)” value [4] was “GST-KIAA1491 complete were phosphorylated by JNK3 ... the phosphorylation was dependent on the dose of JNK3” and the Relative Strength (%) of the phosphorylated GST-c-Jun (1-79) band, 1.0 µg added protein (none added = 100) [5] was 92.7%. The Relative Strength (%) of the phosphorylated GST-c-Jun (1-79) band, 2.0 µg added protein (none added = 100) [5] was 93.6%.
